Measured values taken from IntAct's records for PubMed 19013276.

B1: Cell cycle serine/threonine-protein kinase CDC5/MSD2 (Saccharomyces cerevisiae), P32562 (parent)
chain: MSLGPLKAINDKQLNTRSKLVHTPIKGNTADLVGKENHFKQTKRLDPNNDHHHQPAQKKKREKLSALCKTPPSLIKTRGKDYHRGHFLGEGGFARCFQIKDDSGEIFAAKTVAKASIKSEKTRKKLLSEIQIHKSMSHPNIVQFIDCFEDDSNVYILLEICPNGSLMELLKRRKVLTEPEVRFFTTQICGAIKYMHSRRVIHRDLKLGNIFFDSNYNLKIGDFGLAAVLANESERKYTICGTPNYIAPEVLMGKHSGHSFEVDIWSLGVMLYALLIGKPPFQARDVNTIYERIKCRDFSFPRDKPISDEGKILIRDILSLDPIERPSLTEIMDYVWFRGTFPPSIPSTVMSEAPNFEDIPEEQSLVNFKDCMEKSLLLESMSSDKIQRQKRDYISSIKSSIDKLEEYHQNRPFLPHSLSPGGTKQKYKEVVDIEAQRRLNDLAREARIRRAQQAVLRKELIATSTNVIKSEISLRILASECHLTLNGIVEAEAQYKMGGLPKSRLPKIKHPMIVTKWVDYSNKHGFSYQLSTEDIGVLFNNGTTVLRLADAEEFWYISYDDREGWVASHYLLSEKPRELSRHLEVVDFFAKYMKANLSRVSTFGREEYHKDDVFLRRYTRYKPFVMFELSDGTFQFNFKDHHKMAISDGGKLVTYISPSHESTTYPLVEVLKYGEIPGYPESNFREKLTLIKEGLKQKSTIVTVD
partner: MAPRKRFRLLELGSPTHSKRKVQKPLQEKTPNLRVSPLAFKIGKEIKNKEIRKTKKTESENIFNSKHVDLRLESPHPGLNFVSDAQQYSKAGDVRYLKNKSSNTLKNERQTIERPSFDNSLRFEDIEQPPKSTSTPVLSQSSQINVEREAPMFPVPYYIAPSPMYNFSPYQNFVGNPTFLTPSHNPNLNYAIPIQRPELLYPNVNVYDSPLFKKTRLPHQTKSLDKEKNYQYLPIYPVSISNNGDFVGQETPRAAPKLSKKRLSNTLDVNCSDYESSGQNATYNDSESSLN

Variants of: B1
Settings: with spo13_yeast SPO13, P23624
In the case of W517A;V518A;L530A, the “effect of a mutation on the interaction” value is reported as “decreasing interaction”.

Variants of: B1
Settings: with spo13_yeast SPO13, P23624
Remark: another data set of the same source
W517A;V518A;L530A was tested, and the “effect of a mutation on the interaction” value was “decreasing interaction”.
